Measurements taken from publication PMC6669903 (Neuron, 2019).

Test system: Tiam1/CaMKII complex
Type: cell-based
Settings: bath application (AP5, KN-93) or cotransfection (CaMKIIN)

B1: CaMKIIN: endogenous CaMKII inhibitor protein, cotransfected (protein)
chain: MSEILPYGEDKMGRFGADPEGSDLSFSCRLQDTNSFFAGNQAKRPPKLGQIGRAKRVVIEDDRIDDVLKGMGEKPPSGV
- effect on Tiam1/CaMKII interaction after sLTP induction: blocked
